Data published in patent US20150252099A1 (TRELLIS BIOSCIENCE, published 2015).
Like-named read-outs stand apart in the source and are kept apart here.

Key:
[1] = molecular target: T1, CMV gB protein (strain AD169), purified (human cytomegalovirus (CMV), strain …, UniProt P06473 32-906, limits assumed); assay: cell-based or functional assay
[2] = molecular target: T1, CMV gB protein (strain AD169), purified; assay: ForteBio biosensor, antibody coupled to the probe, gB in solution
Experimental: (§1) In this method, the carboxylic acid groups on Amine Reactive Biosensors were activated with EDC/NHS. […] The gB protein was incubated with the Ab-coated probe and rates of association to and dissociation from the Ab-coated probe were determined by the FortéBio® instrument.

[3] = molecular target: T1, CMV gB protein (strain AD169), purified; assay: told with the gB binding kinetics (ForteBio biosensor); reference mAb 4A2
Experimental: as §1

[4] = molecular target: T1, CMV gB protein (strain AD169), purified; assay: ForteBio biosensor, antibody coupled to the probe, gB in solution; remark: listed apart in the source
Experimental: as §1

[5] = molecular target: T2, AD-2 peptide NETIYNTTLKYGDV (human cytomegalovirus (CMV)); assay: ELISA binding assay on the AD-2 peptide
T2 construct: also called peptide AD-2; conserved peptide designated AD-2
T2 peptide: NETIYNTTLKYGDV

T1 sequence (P06473 32-906 limits assumed): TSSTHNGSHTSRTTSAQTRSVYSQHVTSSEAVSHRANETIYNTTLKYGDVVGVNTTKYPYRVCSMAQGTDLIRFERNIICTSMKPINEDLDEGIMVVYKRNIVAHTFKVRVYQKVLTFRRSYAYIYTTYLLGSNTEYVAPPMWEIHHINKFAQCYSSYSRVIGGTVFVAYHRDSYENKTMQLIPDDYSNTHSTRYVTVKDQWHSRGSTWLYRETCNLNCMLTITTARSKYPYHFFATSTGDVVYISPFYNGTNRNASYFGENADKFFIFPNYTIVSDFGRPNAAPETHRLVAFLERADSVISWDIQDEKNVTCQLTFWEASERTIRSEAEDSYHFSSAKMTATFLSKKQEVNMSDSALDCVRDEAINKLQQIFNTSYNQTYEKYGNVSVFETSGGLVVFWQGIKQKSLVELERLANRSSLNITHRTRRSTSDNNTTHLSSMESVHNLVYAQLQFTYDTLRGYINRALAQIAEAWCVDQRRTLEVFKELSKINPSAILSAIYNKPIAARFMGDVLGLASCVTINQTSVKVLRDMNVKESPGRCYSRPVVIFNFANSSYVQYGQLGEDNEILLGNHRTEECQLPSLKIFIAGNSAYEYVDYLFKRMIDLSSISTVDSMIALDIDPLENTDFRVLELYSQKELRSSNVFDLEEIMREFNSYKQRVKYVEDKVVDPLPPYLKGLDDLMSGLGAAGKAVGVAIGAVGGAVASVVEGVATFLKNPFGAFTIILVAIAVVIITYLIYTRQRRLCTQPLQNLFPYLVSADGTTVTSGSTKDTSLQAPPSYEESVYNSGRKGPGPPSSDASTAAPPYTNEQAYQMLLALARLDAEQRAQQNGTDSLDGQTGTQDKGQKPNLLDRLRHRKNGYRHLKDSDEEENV

Binder | IC50 (µg/mL), neutralizing potency [1] [µg/mL] | Kd [2] [nM] | fold higher potency than mAb 4A2 [3] [fold] | Kd [4] [nM] | koff [4] [s⁻¹] | kon [4] [M⁻¹ s⁻¹] | binding result [5]
mAb 4A2 (antibody, V domains shown, Human mAb) VH: QVLLEESGGGVVQPGRSLRLSCAGSGFTFNRHGIHWVRQAPGKGLEWVTVISSDGANQQYAESVKGRFIISRDNSKNTVYLEMNSLRNDDTGVYFCARDGRCEGERCYSGVTDFWGQGTLV VL: EIVLTQSPATLSLSPGERATLSCRASQNIGGYLAWFQQKAGQAPRLLIYDASIRATGIPARFSGSGSGTDFTLTISSLEPEDFAVYYCQQRNSWPPLTFG | 0.02 | 0.168 | – | – | – | – | –
MAB310 (antibody, V domains shown) VH: QVQLVQSGGGVVQPGTSLRLSCAASGFMFNTYNMHWVRQAPGKGLEWVAVISNDGTYKYSADSLKGRFSISRDNSKNTLYLHMNSLRPDDTAVYYCARDGRSVGGFSGILDPWGQGTLVTVSS VL: EIVLTQSPATLSLSPGDRATLSCRASQTVGRYLAWYQQKPGQAPRLLIYDASDRATGISARFSGSGSGTDFTLTISSLEPEDFAVYYCQQRSNWPPLTFGGGTKVEIKR | – | – | ~10 | 0.8 | 1.2e-05 | 16000 | –
MAB313 (antibody, V domains shown) VH: QVQLVQSGGGVIQPGRSLTLSCAASGFTFSAYSLHWVRQAPGKGLQWVAVISFDGNFKHFADSLRGRFTISRDNSKNRFYLQMNGLRGEDTAVYYCARDGRAVDGFSGILDFWGQGTLVSVSS VL: EIVMTQSPATLSLSPGERATLSCRASQSVGRYLTWFQQKPGQAPRLLIYDASERATGIPARFSGSGSGTDFTLTISSLEPEDFAVYYCQQRANWPPLTFGGGTKVEIK | – | – | ~10 | 0.7 | 1.2e-05 | 17000 | –
MAB338 (antibody, V domains shown) VH: QVQLVESGGGVVQPGRSLRLSCSGSGFTFSDYNLHWVRQAPGKGLEWVAVISIDGTNKHHADSVKGRFTISRDNSKNTVNLEMSRLKAEDTAVYYCVRDGRSIGGYSGIFDPWGQGTLVTVSS VL: EIVLTQSPATLSLSPGERATLSCRASQSVDRYLAWYQQKPGQAPRLLIYDASQRATGIPARFSGSGSGTDFTLAISSLEPEDVAVYYCQQRSNWPPLTFGGGTKIEIK | – | – | ~10 | – | – | – | –
MAB345 (antibody, V domains shown, also called ATCC PTA-121705) VH: QVQLVESGGGVVQPGRSLRLSCAASGFTFSDYNMHWVRQAPGKGLEWVAVISIDGTYKYSADSVAGRFSLSRDNSKNTLYLQMNSLRPDDTAIYYCARDGRSVGGFSGILDPWGQGTLVTVSS VL: EIVMTQSPATLSLSPGDRATLSCRASQSVGSYLAWYQQKPGQAPRLLMYDSSVRATGIPARFSGSGSGTDFTLTISSLEPEDFAVYYCQQRNNWPPLTFGGGTKVEIK | – | – | – | 2.3 | 3.3e-05 | 14000 | –
mAb 19B10 (antibody, V domains shown, Human mAb) VH: QVQLQQSGPGLVKPSQTLSLTCTVSGGSISSGDFCWNWIRQPPGKGLEWIGYICYTGDTYYNPPLNSRVTISVDRSRNQISLRLSSVTAADTAVYYCAREDRRQLHSRPYFYYGLDVWGRGTKVTVSS VL: EIVMTQSPLSLPVTPGETASISCRSSQSLLHSNGHNYLDWYLQKPGQSPHLLIYLGSIRASGVPDRFSGSGTGTDFTLKISRVEAEDVGVYYCMQALQTPNTFGQGTKLEIRR | 0.04 | 0.697 | – | – | – | – | no binding
